Measurements from patent US12493026B2, “Tissue engineered 3D models for cancer metastasis” (The Board of Trustees of the Leland Stanford Junior …, priority 2019, dated 2025).

Assays:
[1] = test system: MDA-MB-231 breast cancer cells; test: Breast cancer cell invasion into tissue engineered bone in spatially patterned 3D coculture (fluorescence imaging); format: cell-based; settings: 1 μg/mL PTH for 6 hours every 48 hours; MDA-MB-231 coculture, 7 days; FIG. 7(A)
Description: To mimic the microanatomical structures of breast cancer invasion into bone through bone marrow/long bone interface (FIGS. 1A and 1B), a “doughnut shape” 3D co-culture model was developed with mesenchymal stem cell (MSC)-formed tissue engineered bone in the outside ring, and breast cancer cells in the center (FIG. 1C). To facilitate imaging the two cell populations, human MSCs were fluorescently labelled red and breast cancer cells were labeled green (GFP). Gelatin μRBs were synthesized as previously reported. Freeze-dried μRBs were rehydrated in PBS containing 0.05% lithium phenyl-2,4,6-trimethylbenzoylphosphinate photoinitiator. […] Breast cancer invasion into tissue engineered bone was monitored using fluorescence imaging at the interface between the outer and inner disks.
Cocultures of MDA-MB-231 and tissue engineered bone were developed as previously described. […] Breast cancer cell invasion into tissue-engineered bone was monitored using fluorescence microscopy every other day for 7 days. Bone mineralization was monitored using X-ray microcomputed tomography (GE CT120) with setting of 100 kV X-ray voltage, 500 μA current, 50 μm voxel resolution and continuous 360° rotation scanning. Reconstructed 3D μCT images were analyzed for changes in bone mineral density using Parallax Microview. […]

[2] = test system: MDA-MB-231 breast cancer cells; test: Breast cancer cell proliferation in 3D coculture (bioluminescence imaging); format: cell-based; settings: 1 μg/mL PTH for 6 hours every 48 hours, FIG. 7(B)
Description: To evaluate the effect of breast cancer cell aggressiveness in their invasion rate into bone, MDA-MB-231 breast cancer cells (more aggressive) were compared to MCF-7 breast cancer cells (less aggressive). Tissue engineered bone was generated as described previously. MDA-MB-231 and MCF-7 breast cancer cells were encapsulated into gelatin μRBs forming 2 mm diameter disks, which were introduced into the center of tissue-engineered bone and placed in EMEM growth media for 7 days. Breast cancer invasion into all groups was performed using fluorescence imaging at the interface between the outer and inner disks over 7 days. Cell proliferation was tracked over the culture period using bioluminescence imaging.
Cocultures of MDA-MB-231 and tissue engineered bone were developed as previously described. Upon starting the coculture, scaffolds were treated with 1 μg/mL of parathyroid hormone (PTH) or PBS control for 6 hours every 48 hours. Breast cancer cell invasion into tissue-engineered bone was monitored using fluorescence microscopy every other day for 7 days. Bone mineralization was monitored using X-ray microcomputed tomography (GE CT120) with setting of 100 kV X-ray voltage, 500 μA current, 50 μm voxel resolution and continuous 360° rotation scanning. Reconstructed 3D μCT images were analyzed for changes in bone mineral density using Parallax Microview. […]

hMSC-derived osteoblasts = test: Osteoblast cell proliferation/survival in 3D coculture (bioluminescence imaging); format: cell-based, human; settings: 1 μg/mL PTH for 6 hours every 48 hours, FIG. 8(A)
Protocol: (§1) Cocultures of MDA-MB-231 and tissue engineered bone were developed as previously described. Upon starting the coculture, scaffolds were treated with 1 μg/mL of parathyroid hormone (PTH) or PBS control for 6 hours every 48 hours. Breast cancer cell invasion into tissue-engineered bone was monitored using fluorescence microscopy every other day for 7 days. Bone mineralization was monitored using X-ray microcomputed tomography (GE CT120) with setting of 100 kV X-ray voltage, 500 μA current, 50 μm voxel resolution and continuous 360° rotation scanning. Reconstructed 3D μCT images were analyzed for changes in bone mineral density using Parallax Microview. Osteoblast cell proliferation was tracked over the culture period using bioluminescence imaging.

tissue engineered bone [3] = test: Bone mineral density of tissue engineered bone in 3D coculture (μCT); format: cell-based, human; settings: 1 μg/mL PTH for 6 hours every 48 hours, FIG. 8(C)
Protocol: Bone mineral density was evaluated over 14 days by comparing tissue engineered bone cultured with (+BrCa) and without (−BrCa) breast cancer cells. Cocultures of tissue engineered bone with MDA-MB-231 were generated as described previously and cultured in EMEM GM for 14 days. Bone mineralization was monitored using X-ray microcomputed tomography (GE CT120) with setting of 100 kV X-ray voltage, 500 μA current, 50 μm voxel resolution and continuous 360° rotation scanning. Reconstructed 3D μCT images will be analyzed for changes in bone mineral density using Parallax Microview.
as §1

tissue engineered bone [4] = test: Breast cancer-induced bone resorption in 3D tri-culture model of osteoclasts, osteoblasts and breast cancer cells (μCT); format: cell-based; settings: 14 days
Protocol: In order to assess the effect of breast cancer in promoting osteoclast activation and bone resorption, the bone mineral density of (1) tissue engineered bone alone (No BrCa), (2) tissue engineered bone+MDA-MB-231 breast cancer cells, and (3) tissue engineered bone+MCF-7 breast cancer cells were evaluated. Tissue engineered bone was developed as described previously. After 28 days in osteogenic media, a 2 mm diameter disk was cut out from the center of tissue engineered bone, leaving an empty hole in the center. Prior to introducing breast cancer cells, 1 million osteoclasts were seeded directly over tissue engineered bone and incubated for 1 hour to allow cells to attach. […] Bone mineralization was monitored using X-ray microcomputed tomography (GE CT120) with setting of 100 kV X-ray voltage, 500 μA current, 50 μm voxel resolution and continuous 360° rotation scanning. Reconstructed 3D μCT images were analyzed for changes in bone mineral density using Parallax Microview.
Validation was performed of a 3D tri-culture model that includes osteoclasts, osteoblasts, and breast cancer cells to mimic clinical outcomes effects of parathyroid hormone treatment on breast cancer patients.
Compared to the bi-culture model earlier (osteoblasts+breast cancer cells), this tri-culture model involves additional osteoclasts seeded on top of the scaffolds. […]

[5] = test system: breast cancer cell-bone metastasis; settings: mouse models; cited from earlier work

B1: parathyroid hormone (protein, UniProt P01270 32-115, looked up)
Parathyroid hormone: SVSEIQLMHNLGKHLNSMERVEWLRKKLQDVHNFVALGAPLAPRDAGSQRPRKKEDNVLVESHEKSLGEADKADVNVLTKAKSQ
modifications: Parathyroid hormone
notes: parathyroid hormone; drug that reduces breast cancer-bone metastasis in vivo
For B1, the “breast cancer cell invasion into tissue engineered bone” value [1] was “significantly reduces”, the “breast cancer cell proliferation” value [2] was “does not impact” and the “osteoblast cell survival in the presence of breast cancer invasion” value (hMSC-derived osteoblasts) was “enhances”. For the same molecule, the “breast cancer cell-induced reduction in bone mineralization (bone mineral density)” value (tissue engineered bone [3]) was “prevents”, the “breast cancer-induced bone resorption (bone loss)” value (tissue engineered bone [4]; continuous PTH treatment (cPTH)) was “does not reduce” and the “breast cancer-induced bone resorption (bone loss)” value (tissue engineered bone [4]; intermittent PTH treatment (iPTH)) was “can reduce”. The “breast cancer cell-bone metastasis” value [5] was “specifically reduce”.
